Earlier results in paper PMC4317059.

What was measured:
[1] = target: Asp143 (UniProt position 144, GNAGSDLACGV); assay: kinetics
[2] = target: Glu143 (UniProt position 144, GNAGSELACGV); assay: kinetics

| Substance | pKa [1] | pKa [2] |
| --- | --- | --- |
| Cu,Zn superoxide dismutase (SOD1) Arg143Asp mutant (Homo sapiens; R143D) | ca. 6.2 |  |
| Cu,Zn superoxide dismutase (SOD1) Arg143Glu mutant (Homo sapiens; R143E) |  | ca. 6.2 |
